Our source for the amyloid nucleation score values is the supplement of paper PMC12042874.

This series can be described thus: amyloid nucleation score (Sup35N fusion, yeast selection) (log enrichment); library NNK2; higher = more nucleation; inactive = no reads after selection. In outline: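 Growth for 7 days at 30°C on medium lacking adenine and uracil followed a 24-hour induction with 100 μM copper sulfate of psi-negative yeast expressing peptides of 20 random codons fused to Sup35N. Input and output plasmid inserts were sequenced with Illumina, and sequences with under 100 input reads were excluded. Nucleation score is the DiMSum log enrichment of output over input reads, centred on the mode score of non-aggregating sequences.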

± gives the uncertainty stated by the source.

FLGEVCQWDRMIVARVKATR returned an amyloid nucleation score of -0.063 ± 0.29.
To TRMCGMGTQGGLSRF belongs 0.257 ± 0.65.
To NRWLYFHS belongs -0.678 ± 0.76; to FQIRT, “inactive”.
The figure for LAMMELYVSRETGLWYM is -0.503 ± 0.32.
For the substance SYDVLCILRS, the amyloid nucleation score was -0.547 ± 0.76.
The substance RVVQPKFMLGVQYSAIQFNS returned an amyloid nucleation score of 2.47 ± 0.089.
The figure for LGNDR is -0.744 ± 0.48; for VYFELVPVGTYL it is -0.214 ± 1.
TMSGCSLLCWEYNASQDLSN: the amyloid nucleation score is -0.071 ± 0.62.
The figure for GLRSIGLGVQSFRSYQFSRI is -0.415 ± 0.45.
To NRGFFGSYGVPELQNMDQFE belongs 0.153 ± 0.79; to QYGVLSSETLGCTVFKWYVS, 0.468 ± 0.6.
To TFAATIGTCMVEILSMGSPG belongs 0.603 ± 0.52; to IYALFLICLLHISVGLLMYR, -0.179 ± 0.63; to YVQRNNARVTLGGTHSFRSV, 3.83 ± 0.068.
The substance WRDTC showed an amyloid nucleation score of -0.086 ± 0.49.
Turning to RYGVRTSAPNMQWLFAGWS, the amyloid nucleation score was 0.613 ± 0.74.
The substance LDWPDLENQAVVVNTWVSE displayed an amyloid nucleation score of 0.279 ± 0.5.
For the substance KLWETRACFVTCR, the amyloid nucleation score was 0.362 ± 0.4.
In turn, KIFTSCKELTVVGLVASYMN had an amyloid nucleation score of 0.782 ± 0.51.
The figure for SVNMFKFRTDSSFCDLTLCH is 0.423 ± 0.8; for YRFKLFTHRYILFNWVFLLL it is “inactive”.
The figure for EFMGVSR is 1.51 ± 0.52; for SVTGPILICVSLIASFRRSM it is 4.27 ± 0.061.
Regarding LNSYRPWCWY, the amyloid nucleation score result was “inactive”.
To EGEITFGTFPYSEFVFECST belongs “inactive”; to TPNIGSSRVVMLSLQLLN, 6.955 ± 0.054; to YRPITRMCSWDRNSLWWSRY, -0.582 ± 0.54.
To NYPSVGSDIARLLRLVTRRI belongs -0.313 ± 0.76.
As for TLLNAYNNTLVWIWFVSMPV, the amyloid nucleation score came to 5.46 ± 0.081.
Take QGRGLRYQH: the amyloid nucleation score was 0.166 ± 0.76.
Turning to YVSHLMFKVSGLPWLGRCNY, the amyloid nucleation score worked out at 4.78 ± 0.087.
GVAGFDTSDNETG gave an amyloid nucleation score of 0.543 ± 0.33.
FSYPGWFGFRS: the amyloid nucleation score result is “inactive”.
With NKWSPEGNSACRDSVCTHIY, the amyloid nucleation score is -0.807 ± 0.76.
MPIEVILCFGG had an amyloid nucleation score of 1.84 ± 0.34.
CIMCGALEIGFGIIRGWEDF came in with an amyloid nucleation score of 9.421 ± 0.067.
To MLVMTMLWKMFSVAG belongs 0.432 ± 0.26; to FKKTLTGCYGGGRGAMNNGK, “inactive”; to YYMKVVMVDTQTQV, “inactive”.
The figure for FRVPF is 2.03 ± 0.24.
In the case of YYHCPTSFFYIV, the amyloid nucleation score entry was “inactive”.
To GTCLHCGEIRS belongs -0.293 ± 0.29.
In the case of SLLGLNFCSMLAIL, the amyloid nucleation score amounted to 3.23 ± 0.075.
On to LRTVDVAR, for which the amyloid nucleation score is -0.654 ± 0.55.
To SNCYLKRSYGFRDIITKIRY belongs 1.24 ± 0.14; to ANCCLRTWVFCRSYCYIILF, -0.014 ± 0.8; to MKCWASPGWTQIQMEPKEGS, 0.064 ± 0.26.
As for RFHFSDWR, the amyloid nucleation score entry was “inactive”.
For the substance LVCSKSAGEWAYSRFGVLDL, the amyloid nucleation score was -0.444 ± 0.44.
The figure for LIFQVMFVDCIEFRCWNMAL is 0.959 ± 0.6; for KRYWSPVFVQNYIDDFKVSD it is 0.453 ± 0.34.
For YVKSRHTNYDGRSTLL, the amyloid nucleation score was 3.12 ± 0.13.
On to TGLDIGLGWLYMYRGATLAI, for which the amyloid nucleation score is 0.542 ± 0.35.
Take QMIWKIVCING: the amyloid nucleation score amounted to 4.55 ± 0.097.
To LLVML belongs 0.851 ± 0.46; to LLVRLSVCLSSEPANWDTG, 4.2 ± 0.073.
The figure for DIHRPQRYISKYSSTREWVG is -0.224 ± 0.32; for LCNNPNGGIGQLKVL it is 0.515 ± 0.64; for LNFIGFK it is 0.102 ± 0.74.
The figure for IYRKSICYSFVWALFEVAEW is -0.398 ± 0.35; for SITAIYESLNRRRNLKFKYC it is “inactive”.
FMIFDVGNSGKYLLSVS registered an amyloid nucleation score of -0.774 ± 0.27.
On to LKYIPRWVGTSLLQRKLCDF, for which the amyloid nucleation score is -0.711 ± 1.1.
With WGHFQEDARFTSYGVGSVLG, the amyloid nucleation score was -0.263 ± 1.1.
Regarding VHLLGDFGLASQRRNECKLL, the amyloid nucleation score came out at 0.477 ± 0.28.
With NVHFFCWCFLNLCV, the amyloid nucleation score was -0.558 ± 1.
The figure for SHRFADILDCV is 0.518 ± 0.24; for SLCGRRFNTDEPLLETRSSL it is 0.817 ± 0.51; for CAPDVQWFSKIAFE it is 1.1 ± 0.53.
Take SLLNTGRYCWC: the amyloid nucleation score came to 1.05 ± 0.35.
FWCGCNFVVHLYVTSSSLKP registered an amyloid nucleation score of 8.006 ± 0.065.
On to IIVYFVAFASTGARASK, for which the amyloid nucleation score is -0.951 ± 0.54.
NYWCMVV had an amyloid nucleation score of 5.24 ± 0.075.
Consider PNRTFLLKVGA, for which the amyloid nucleation score was -1.1 ± 1.1.
Substance LGRNGASYLNDSCRIPNAGK showed an amyloid nucleation score of -0.562 ± 0.56.
In the case of VVYTRIEVILSGDLSPREMV, the amyloid nucleation score turned out to be 0.763 ± 0.24.
The figure for GTDTTIDLNSYGHYYSLCVR is 0.334 ± 0.65; for VDNIVHMWDRNWSPGRYMDR it is -0.679 ± 0.44.
The figure for KTCVPDYNNGWRFDFAYLD is -0.795 ± 0.45; for SGSVLFGRVYRRRFLFWVVD it is “inactive”.
Take EMSPSLMELFHACVVLVRFG: the amyloid nucleation score is -0.051 ± 0.37.
To SLYFVWSCLLGILKVMPTFN belongs -1.18 ± 0.64; to KDTMK, -0.001 ± 0.24.
The figure for SGVKLYRLRRLCLFSRGKFA is 4.09 ± 0.12.
Substance WSEHQGQPNRERWWSAAGEG came in with an amyloid nucleation score of 0.984 ± 0.32.
To FFRGSYTRAWH belongs 0.967 ± 0.29; to WVNYFEGLMIPVSARN, -1.16 ± 0.76.
To CPSWFLSGDKCFYRGESSEN belongs -0.184 ± 0.63; to LCFLVFMLRPRLASLYSRML, -1.11 ± 0.36; to SILGGVKSLRNIKLFSVWLA, -0.569 ± 0.79.
The figure for IFDAFWYTVTVRDNDG is 1.76 ± 0.17; for LVLIIK it is 5.96 ± 0.075; for CAPFVRDFINMVCRRMPNTN it is 0.566 ± 0.66.
Consider CLNQSLRNTSWKHMAEPKKR, for which the amyloid nucleation score was determined as 3.82 ± 0.12.
To LVMWNRCSIKRVNREMVHSF belongs 0.538 ± 0.3; to RFYRSVNFKLYLVA, “inactive”.
In the case of VRGAIVQKALDCKSVDKSLE, the amyloid nucleation score entry is “inactive”.
To LILNIRTTGCGYFC belongs 8.818 ± 0.049; to MVVRDL, -0.536 ± 1; to FRWGFVSPDRSIGDVFLQLC, -0.137 ± 1.1.
LSIAYFSSAWCFYL: the amyloid nucleation score came to 6.216 ± 0.038.
Substance ALFRPEYRFM displayed an amyloid nucleation score of 2.64 ± 0.13.
